{"source": "patent US20170313764A1", "about": "(ACADEMISCH MEDISCH CENTRUM, published 2017)", "binders": {"B1": {"name": "AT15-012 (antibody, V domains shown)", "VH": "QVQLVQSGAEVKKPGSSVKVSCKASGGNFNIFPITWVRQAPGQGLEWMGEIIPMLGTPEYAQKFQGRVTITADKSTGTAFMELSSLRSEDTAVYYCARTETTLPGTLFFVYYFHFWGQGTPVTVSS", "VL": "EIVMTQSPVTLSVSPGERAILSCRASQSVSSSLAWYQQKPGQAPRLLIYGASTRATGVPARFSGSGSGTEFTLTISSVQSEDYAIYFCQQYNDRPPWTFGQGTKVEIK", "notes": "also called AT15-12"}, "B2": {"name": "AT15-009 (antibody, V domains shown)", "VH": "QVLLVQSGAEVKKPGSSVKVSCKASGGTFSTYAISWLRQAPGQGPEWMGGIVPMFGITNYAQHFQGRITITADKSTSTAYMELSSLGSEDTAVYFCARDLRSGGTFFSRGFDLWGPGTKVTVSS", "VL": "EIVLTQSPGTLSLSPGERATLSCRASQSVSSSFLTWYQQKPGQAPRLLIFDASTRATGVPDRFSGSGSGTDFTLTISRLEPEDFGVYYCQQFDSSPTFGGGTKVEIK"}}, "key": {"[1]": {"biological_target": "E1E2 of HCV isolate H77 with single mutation N423A (Hepatitis C virus genotype 1a, strain …, UniProt P27958 192-383; P27958 384-746)", "assay": "ELISA, GNA-captured E1E2 lysate; EC50 wild type / EC50 mutant"}, "[2]": {"biological_target": "E1E2 of HCV isolate H77 with single mutation V538A (Hepatitis C virus genotype 1a, strain …, UniProt P27958 192-383; P27958 384-746)", "assay": "ELISA, GNA-captured E1E2 lysate; EC50 wild type / EC50 mutant"}, "[3]": {"biological_target": "E1E2 of HCV isolate H77 with single mutation W529A (Hepatitis C virus genotype 1a, strain …, UniProt P27958 192-383; P27958 384-746)", "assay": "ELISA, GNA-captured E1E2 lysate; EC50 wild type / EC50 mutant"}, "[4]": {"biological_target": "E1E2 of HCV isolate H77 with single mutation L441A (Hepatitis C virus genotype 1a, strain …, UniProt P27958 192-383; P27958 384-746)", "assay": "ELISA, GNA-captured E1E2 lysate; EC50 wild type / EC50 mutant"}, "[5]": {"biological_target": "E1E2 of HCV isolate H77 with single mutation D698A (Hepatitis C virus genotype 1a, strain …, UniProt P27958 192-383; P27958 384-746)", "assay": "ELISA, GNA-captured E1E2 lysate; EC50 wild type / EC50 mutant"}, "[6]": {"biological_target": "E1E2 of HCV isolate H77 with single mutation N415A (Hepatitis C virus genotype 1a, strain …, UniProt P27958 192-383; P27958 384-746)", "assay": "ELISA, GNA-captured E1E2 lysate; EC50 wild type / EC50 mutant"}, "[7]": {"biological_target": "E1E2 of HCV isolate H77 with single mutation Y527A (Hepatitis C virus genotype 1a, strain …, UniProt P27958 192-383; P27958 384-746)", "assay": "ELISA, GNA-captured E1E2 lysate; EC50 wild type / EC50 mutant"}, "[8]": {"biological_target": "E1E2 of HCV isolate H77 with single mutation D535A (Hepatitis C virus genotype 1a, strain …, UniProt P27958 192-383; P27958 384-746)", "assay": "ELISA, GNA-captured E1E2 lysate; EC50 wild type / EC50 mutant"}, "[9]": {"biological_target": "E1E2 of HCV isolate H77 with single mutation T435A (Hepatitis C virus genotype 1a, strain …, UniProt P27958 192-383; P27958 384-746)", "assay": "ELISA, GNA-captured E1E2 lysate; EC50 wild type / EC50 mutant"}, "[10]": {"biological_target": "E1E2 of HCV isolate H77 with single mutation N448A (Hepatitis C virus genotype 1a, strain …, UniProt P27958 192-383; P27958 384-746)", "assay": "ELISA, GNA-captured E1E2 lysate; EC50 wild type / EC50 mutant"}, "[11]": {"biological_target": "E1E2 of HCV isolate H77 with single mutation D533A (Hepatitis C virus genotype 1a, strain …, UniProt P27958 192-383; P27958 384-746)", "assay": "ELISA, GNA-captured E1E2 lysate; EC50 wild type / EC50 mutant"}, "[12]": {"biological_target": "E1E2 of HCV isolate H77 with single mutation W616A (Hepatitis C virus genotype 1a, strain …, UniProt P27958 192-383; P27958 384-746)", "assay": "ELISA, GNA-captured E1E2 lysate; EC50 wild type / EC50 mutant"}, "[13]": {"biological_target": "E1E2 of HCV isolate H77 with single mutation N325A (in E1) (Hepatitis C virus genotype 1a, strain …, UniProt P27958 192-383; P27958 384-746)", "assay": "ELISA, GNA-captured E1E2 lysate; EC50 wild type / EC50 mutant"}, "[14]": {"biological_target": "E1E2 of HCV isolate H77 with single mutation T526A (Hepatitis C virus genotype 1a, strain …, UniProt P27958 192-383; P27958 384-746)", "assay": "ELISA, GNA-captured E1E2 lysate; EC50 wild type / EC50 mutant"}, "[15]": {"biological_target": "E1E2 of HCV isolate H77 with single mutation G418A (Hepatitis C virus genotype 1a, strain …, UniProt P27958 192-383; P27958 384-746)", "assay": "ELISA, GNA-captured E1E2 lysate; EC50 wild type / EC50 mutant"}, "[16]": {"biological_target": "E1E2 of HCV isolate H77 with single mutation L413A (Hepatitis C virus genotype 1a, strain …, UniProt P27958 192-383; P27958 384-746)", "assay": "ELISA, GNA-captured E1E2 lysate; EC50 wild type / EC50 mutant"}, "[17]": {"biological_target": "E1E2 of HCV isolate H77 with single mutation G530A (Hepatitis C virus genotype 1a, strain …, UniProt P27958 192-383; P27958 384-746)", "assay": "ELISA, GNA-captured E1E2 lysate; EC50 wild type / EC50 mutant"}, "[18]": {"biological_target": "E1E2 of HCV isolate H77 with single mutation S424A (Hepatitis C virus genotype 1a, strain …, UniProt P27958 192-383; P27958 384-746)", "assay": "ELISA, GNA-captured E1E2 lysate; EC50 wild type / EC50 mutant"}, "[19]": {"biological_target": "E1E2 of HCV isolate H77 (genotype 1a), wild type (Hepatitis C virus genotype 1a, strain …, UniProt P27958 192-383; P27958 384-746)", "assay": "cell-based or functional assay"}, "[20]": {"biological_target": "E1E2 of HCV isolate AMS.4d.20875969 (genotype 4d) (Hepatitis C virus genotype 4d)", "assay": "cell-based or functional assay"}, "[21]": {"biological_target": "E1E2 of HCV isolate AMS.3a.21071213 (genotype 3a) (Hepatitis C virus genotype 3a)", "assay": "cell-based or functional assay"}, "[22]": {"biological_target": "E1E2 of HCV isolate UKN4.11.1 (genotype 4) (Hepatitis C virus genotype 4)", "assay": "cell-based or functional assay"}}, "data": [{"binder": "B1", "values": [{"measurement": "relative binding, mutant vs wild type", "setting": "[1]", "value": 132, "unit": "%"}, {"measurement": "relative binding, mutant vs wild type", "setting": "[2]", "value": 103, "unit": "%"}, {"measurement": "relative binding, mutant vs wild type", "setting": "[3]", "value": 77, "unit": "%"}, {"measurement": "relative binding, mutant vs wild type", "setting": "[4]", "value": 83, "unit": "%"}, {"measurement": "relative binding, mutant vs wild type", "setting": "[5]", "value": 117, "unit": "%"}, {"measurement": "relative binding, mutant vs wild type", "setting": "[6]", "value": 101, "unit": "%"}, {"measurement": "relative binding, mutant vs wild type", "setting": "[7]", "value": 76, "unit": "%"}, {"measurement": "relative binding, mutant vs wild type", "setting": "[8]", "value": 52, "unit": "%"}, {"measurement": "relative binding, mutant vs wild type", "setting": "[9]", "value": 99, "unit": "%"}, {"measurement": "relative binding, mutant vs wild type", "setting": "[10]", "value": 129, "unit": "%"}, {"measurement": "relative binding, mutant vs wild type", "setting": "[11]", "value": 82, "unit": "%"}, {"measurement": "relative binding, mutant vs wild type", "setting": "[12]", "value": 71, "unit": "%"}, {"measurement": "relative binding, mutant vs wild type", "setting": "[13]", "value": 94, "unit": "%"}, {"measurement": "relative binding, mutant vs wild type", "setting": "[14]", "value": 82, "unit": "%"}, {"measurement": "relative binding, mutant vs wild type", "setting": "[15]", "value": 124, "unit": "%"}, {"measurement": "relative binding, mutant vs wild type", "setting": "[16]", "value": 132, "unit": "%"}, {"measurement": "relative binding, mutant vs wild type", "setting": "[17]", "value": 48, "unit": "%"}, {"measurement": "relative binding, mutant vs wild type", "setting": "[18]", "value": 67, "unit": "%"}, {"measurement": "IC50, HCVpp neutralization", "setting": "[19]", "value": 0.26, "unit": "µg/mL"}, {"measurement": "IC50, HCVpp neutralization", "setting": "[20]", "value": 1.16, "unit": "µg/mL"}, {"measurement": "IC50, HCVpp neutralization", "setting": "[21]", "value": 0.9, "unit": "µg/mL"}, {"measurement": "IC50, HCVpp neutralization", "setting": "[22]", "value": 1.66, "unit": "µg/mL"}]}, {"binder": "B2", "values": [{"measurement": "relative binding, mutant vs wild type", "setting": "[1]", "value": 111, "unit": "%"}, {"measurement": "relative binding, mutant vs wild type", "setting": "[2]", "value": 126, "unit": "%"}, {"measurement": "relative binding, mutant vs wild type", "setting": "[3]", "value": 82, "unit": "%"}, {"measurement": "relative binding, mutant vs wild type", "setting": "[4]", "value": 57, "unit": "%"}, {"measurement": "relative binding, mutant vs wild type", "setting": "[5]", "value": 116, "unit": "%"}, {"measurement": "relative binding, mutant vs wild type", "setting": "[6]", "value": 116, "unit": "%"}, {"measurement": "relative binding, mutant vs wild type", "setting": "[7]", "value": 84, "unit": "%"}, {"measurement": "relative binding, mutant vs wild type", "setting": "[8]", "value": 55, "unit": "%"}, {"measurement": "relative binding, mutant vs wild type", "setting": "[9]", "value": 101, "unit": "%"}, {"measurement": "relative binding, mutant vs wild type", "setting": "[10]", "value": 113, "unit": "%"}, {"measurement": "relative binding, mutant vs wild type", "setting": "[11]", "value": 94, "unit": "%"}, {"measurement": "relative binding, mutant vs wild type", "setting": "[12]", "value": 29, "unit": "%"}, {"measurement": "relative binding, mutant vs wild type", "setting": "[13]", "value": 103, "unit": "%"}, {"measurement": "relative binding, mutant vs wild type", "setting": "[14]", "value": 87, "unit": "%"}, {"measurement": "relative binding, mutant vs wild type", "setting": "[15]", "value": 112, "unit": "%"}, {"measurement": "relative binding, mutant vs wild type", "setting": "[16]", "value": 112, "unit": "%"}, {"measurement": "relative binding, mutant vs wild type", "setting": "[17]", "value": 52, "unit": "%"}, {"measurement": "relative binding, mutant vs wild type", "setting": "[18]", "value": 106, "unit": "%"}, {"measurement": "IC50, HCVpp neutralization", "setting": "[19]", "value": 0.14, "unit": "µg/mL"}, {"measurement": "IC50, HCVpp neutralization", "setting": "[20]", "value": 2.26, "unit": "µg/mL"}, {"measurement": "IC50, HCVpp neutralization", "setting": "[21]", "value": 0.71, "unit": "µg/mL"}, {"measurement": "IC50, HCVpp neutralization", "setting": "[22]", "value": 1.33, "unit": "µg/mL"}]}]}
